# Biological target: the molecule itself
# Test: SEC; HiLoad 16/60 Superdex 200 pg, 50 mM HEPES pH 7.0 + 200 mM NaCl, against standard protein markers; self-association
protein,measurement,value
"Phosphoglucomutase/phosphomannomutase from Thermococcus kodakarensis (PGMTk) (enzyme, Phosphoglucomutase/phosphomannomutase PGMTk, product of gene Tk1108 of Thermococcus kodakarensis, UniProt Q68BJ6; His6 and a TEV protease site were put upstream of the gene; also called Tk1108; TK1108; source: E. coli Rosetta 2(DE3)pLysS, purified (heat treatment at 85 °C, Ni-NTA, Superdex 200 gel filtration)) MGKLFGTFGVRGIANEEITPEFALKIGMAFGTLLKREGRERPLVVVGRDTRVSGEMLKDALISGLLSTGCDVIDVGIAPTPAIQWATNHFNADGGAVITASHNPPEYNGIKLLEPNGMGLKKEREAIVEELFFSEDFHRAKWNEIGELRKEDIIKPYIEAIKNRVDVEAIKKRRPFVVVDTSNGAGSLTLPYLLRELGCKVVSVNAHPDGHFPARNPEPNEENLKGFMEIVKALGADFGVAQDGDADRAVFIDENGRFIQGDKTFALVADAVLRENGGGLLVTTIATSNLLDDIAKRNGAKVMRTKVGDLIVARALLENNGTIGGEENGGVIFPDFVLGRDGAMTTAKIVEIFAKSGKKFSELIDELPKYYQFKTKRHVEGDRKAIVAKVAELAEKKGYKIDTTDGTKIIFDDGWVLVRASGTEPIIRIFSEAKSEEKAREYLELGIKLLEEALKG",stoichiometry N,4

# Reference: PMC11940775, “A Bifunctional Phosphoglucomutase/Phosphomannomutase from Thermococcus kodakarensis: Biophysical Analysis and Cryo-EM Structure” (Biomolecules, 2025)
